Here are results for one substance from patent US20110318377A1.

The target of this experiment is Tat/FLAG (wild type HIV-1 Tat with FLAG tag, expressed in cells) (HIV-1). Nature of the experiment: cell-based or functional assay.

“endogenous Set9 (in Jurkat A2, HEK293 and HeLa cells) (from UniProt Q8WTS6 1-366)” came in with a decrease in Tat transactivation of the HIV LTR (luciferase) in HeLa cells after Set9 siRNA of 50 percent.
